Assay: immunofluorescence, Hh-induced plasma membrane vs ER marker, Cl8
Conditions: glycan lost; control: wild type dSmo

Row | Protein | localisation_or_trafficking
1 | Drosophila Smo (dSmo): N95Q (protein) parent chain: MQYLNFPRMPNIMMFLEVAILCLWVVADASASSAKFGSTTPASAQQSDVELEPINGTLNYRLYAKKGRDDKPWFDGLDSRHIQCVRRARCYPTSNATNTCFGSKLPYELSSLDLTDFHTEKELNDKLNDYYALKHVPKCWAAIQPFLCAVFKPKCEKINGEDMVYLPSYEMCRITMEPCRILYNTTFFPKFLRCNETLFPTKCTNGARGMKFNGTGQCLSPLVPTDTSASYYPGIEGCGVRCKDPLYTDDEHRQIHKLIGWAGSICLLSNLFVVSTFFIDWKNANKYPAVIVFYINLCFLIACVGWLLQFTSGSREDIVCRKDGTLRHSEPTAGENLSCIVIFVLVYYFLTAGMVWFVFLTYAWHWRAMGHVQDRIDKKGSYFHLVAWSLPLVLTITTMAFSEVDGNSIVGICFVGYINHSMRAGLLLGPLCGVILIGGYFITRGMVMLFGLKHFANDIKSTSASNKIHLIIMRMGVCALLTLVFILVAIACHVTEFRHADEWAQSFRQFIICKISSVFEEKSSCRIENRPSVGVLQLHLLCLFSSGIVMSTWCWTPSSIETWKRYIRKKCGKEVVEEVKMPKHKVIAQTWAKRKDFEDKGRLSITLYNTHTDPVGLNFDVNDLNSSETNDISSTWAAYLPQCVKRRMALTGAATGNSSSHGPRKNSLDSEISVSVRHVSVESRRNSVDSQVSVKIAEMKTKVASRSRGKHGGSSSNRRTQRRRDYIAAATGKSSRRRESSTSVESQVIALKKTTYPNASHKVGVFAHHSSKKQHNYTSSMKRRTANAGLDPSILNEFLQKNGDFIFPFLQNQDMSSSSEEDNSRASQKIQDLNVVVKQQEISEDDHDGIKIEELPNSKQVALENFLKNIKKSNESNSNRHSRNSARSQSKKSQKRHLKNPAADLDFRKDCVKYRSNDSLSCSSEELDVALDVGSLLNSSFSGISMGKPHSRNSKTSCDVGIQANPFELVPSYGEDELQQAMRLLNAASRQRTEAANEDFGGTELQGLLGHSHRHQREPTFMSESDKLKMLLLPSK | no change
2 | Drosophila Smo (dSmo): N195Q (protein) parent chain: MQYLNFPRMPNIMMFLEVAILCLWVVADASASSAKFGSTTPASAQQSDVELEPINGTLNYRLYAKKGRDDKPWFDGLDSRHIQCVRRARCYPTSNATNTCFGSKLPYELSSLDLTDFHTEKELNDKLNDYYALKHVPKCWAAIQPFLCAVFKPKCEKINGEDMVYLPSYEMCRITMEPCRILYNTTFFPKFLRCNETLFPTKCTNGARGMKFNGTGQCLSPLVPTDTSASYYPGIEGCGVRCKDPLYTDDEHRQIHKLIGWAGSICLLSNLFVVSTFFIDWKNANKYPAVIVFYINLCFLIACVGWLLQFTSGSREDIVCRKDGTLRHSEPTAGENLSCIVIFVLVYYFLTAGMVWFVFLTYAWHWRAMGHVQDRIDKKGSYFHLVAWSLPLVLTITTMAFSEVDGNSIVGICFVGYINHSMRAGLLLGPLCGVILIGGYFITRGMVMLFGLKHFANDIKSTSASNKIHLIIMRMGVCALLTLVFILVAIACHVTEFRHADEWAQSFRQFIICKISSVFEEKSSCRIENRPSVGVLQLHLLCLFSSGIVMSTWCWTPSSIETWKRYIRKKCGKEVVEEVKMPKHKVIAQTWAKRKDFEDKGRLSITLYNTHTDPVGLNFDVNDLNSSETNDISSTWAAYLPQCVKRRMALTGAATGNSSSHGPRKNSLDSEISVSVRHVSVESRRNSVDSQVSVKIAEMKTKVASRSRGKHGGSSSNRRTQRRRDYIAAATGKSSRRRESSTSVESQVIALKKTTYPNASHKVGVFAHHSSKKQHNYTSSMKRRTANAGLDPSILNEFLQKNGDFIFPFLQNQDMSSSSEEDNSRASQKIQDLNVVVKQQEISEDDHDGIKIEELPNSKQVALENFLKNIKKSNESNSNRHSRNSARSQSKKSQKRHLKNPAADLDFRKDCVKYRSNDSLSCSSEELDVALDVGSLLNSSFSGISMGKPHSRNSKTSCDVGIQANPFELVPSYGEDELQQAMRLLNAASRQRTEAANEDFGGTELQGLLGHSHRHQREPTFMSESDKLKMLLLPSK | no change
3 | Drosophila Smo (dSmo): N184Q (protein) parent chain: MQYLNFPRMPNIMMFLEVAILCLWVVADASASSAKFGSTTPASAQQSDVELEPINGTLNYRLYAKKGRDDKPWFDGLDSRHIQCVRRARCYPTSNATNTCFGSKLPYELSSLDLTDFHTEKELNDKLNDYYALKHVPKCWAAIQPFLCAVFKPKCEKINGEDMVYLPSYEMCRITMEPCRILYNTTFFPKFLRCNETLFPTKCTNGARGMKFNGTGQCLSPLVPTDTSASYYPGIEGCGVRCKDPLYTDDEHRQIHKLIGWAGSICLLSNLFVVSTFFIDWKNANKYPAVIVFYINLCFLIACVGWLLQFTSGSREDIVCRKDGTLRHSEPTAGENLSCIVIFVLVYYFLTAGMVWFVFLTYAWHWRAMGHVQDRIDKKGSYFHLVAWSLPLVLTITTMAFSEVDGNSIVGICFVGYINHSMRAGLLLGPLCGVILIGGYFITRGMVMLFGLKHFANDIKSTSASNKIHLIIMRMGVCALLTLVFILVAIACHVTEFRHADEWAQSFRQFIICKISSVFEEKSSCRIENRPSVGVLQLHLLCLFSSGIVMSTWCWTPSSIETWKRYIRKKCGKEVVEEVKMPKHKVIAQTWAKRKDFEDKGRLSITLYNTHTDPVGLNFDVNDLNSSETNDISSTWAAYLPQCVKRRMALTGAATGNSSSHGPRKNSLDSEISVSVRHVSVESRRNSVDSQVSVKIAEMKTKVASRSRGKHGGSSSNRRTQRRRDYIAAATGKSSRRRESSTSVESQVIALKKTTYPNASHKVGVFAHHSSKKQHNYTSSMKRRTANAGLDPSILNEFLQKNGDFIFPFLQNQDMSSSSEEDNSRASQKIQDLNVVVKQQEISEDDHDGIKIEELPNSKQVALENFLKNIKKSNESNSNRHSRNSARSQSKKSQKRHLKNPAADLDFRKDCVKYRSNDSLSCSSEELDVALDVGSLLNSSFSGISMGKPHSRNSKTSCDVGIQANPFELVPSYGEDELQQAMRLLNAASRQRTEAANEDFGGTELQGLLGHSHRHQREPTFMSESDKLKMLLLPSK | no change
4 | Drosophila Smo (dSmo): N195Q,N336Q (protein) parent chain: MQYLNFPRMPNIMMFLEVAILCLWVVADASASSAKFGSTTPASAQQSDVELEPINGTLNYRLYAKKGRDDKPWFDGLDSRHIQCVRRARCYPTSNATNTCFGSKLPYELSSLDLTDFHTEKELNDKLNDYYALKHVPKCWAAIQPFLCAVFKPKCEKINGEDMVYLPSYEMCRITMEPCRILYNTTFFPKFLRCNETLFPTKCTNGARGMKFNGTGQCLSPLVPTDTSASYYPGIEGCGVRCKDPLYTDDEHRQIHKLIGWAGSICLLSNLFVVSTFFIDWKNANKYPAVIVFYINLCFLIACVGWLLQFTSGSREDIVCRKDGTLRHSEPTAGENLSCIVIFVLVYYFLTAGMVWFVFLTYAWHWRAMGHVQDRIDKKGSYFHLVAWSLPLVLTITTMAFSEVDGNSIVGICFVGYINHSMRAGLLLGPLCGVILIGGYFITRGMVMLFGLKHFANDIKSTSASNKIHLIIMRMGVCALLTLVFILVAIACHVTEFRHADEWAQSFRQFIICKISSVFEEKSSCRIENRPSVGVLQLHLLCLFSSGIVMSTWCWTPSSIETWKRYIRKKCGKEVVEEVKMPKHKVIAQTWAKRKDFEDKGRLSITLYNTHTDPVGLNFDVNDLNSSETNDISSTWAAYLPQCVKRRMALTGAATGNSSSHGPRKNSLDSEISVSVRHVSVESRRNSVDSQVSVKIAEMKTKVASRSRGKHGGSSSNRRTQRRRDYIAAATGKSSRRRESSTSVESQVIALKKTTYPNASHKVGVFAHHSSKKQHNYTSSMKRRTANAGLDPSILNEFLQKNGDFIFPFLQNQDMSSSSEEDNSRASQKIQDLNVVVKQQEISEDDHDGIKIEELPNSKQVALENFLKNIKKSNESNSNRHSRNSARSQSKKSQKRHLKNPAADLDFRKDCVKYRSNDSLSCSSEELDVALDVGSLLNSSFSGISMGKPHSRNSKTSCDVGIQANPFELVPSYGEDELQQAMRLLNAASRQRTEAANEDFGGTELQGLLGHSHRHQREPTFMSESDKLKMLLLPSK | decreases
5 | Drosophila Smo (dSmo): N95Q,N336Q (protein) parent chain: MQYLNFPRMPNIMMFLEVAILCLWVVADASASSAKFGSTTPASAQQSDVELEPINGTLNYRLYAKKGRDDKPWFDGLDSRHIQCVRRARCYPTSNATNTCFGSKLPYELSSLDLTDFHTEKELNDKLNDYYALKHVPKCWAAIQPFLCAVFKPKCEKINGEDMVYLPSYEMCRITMEPCRILYNTTFFPKFLRCNETLFPTKCTNGARGMKFNGTGQCLSPLVPTDTSASYYPGIEGCGVRCKDPLYTDDEHRQIHKLIGWAGSICLLSNLFVVSTFFIDWKNANKYPAVIVFYINLCFLIACVGWLLQFTSGSREDIVCRKDGTLRHSEPTAGENLSCIVIFVLVYYFLTAGMVWFVFLTYAWHWRAMGHVQDRIDKKGSYFHLVAWSLPLVLTITTMAFSEVDGNSIVGICFVGYINHSMRAGLLLGPLCGVILIGGYFITRGMVMLFGLKHFANDIKSTSASNKIHLIIMRMGVCALLTLVFILVAIACHVTEFRHADEWAQSFRQFIICKISSVFEEKSSCRIENRPSVGVLQLHLLCLFSSGIVMSTWCWTPSSIETWKRYIRKKCGKEVVEEVKMPKHKVIAQTWAKRKDFEDKGRLSITLYNTHTDPVGLNFDVNDLNSSETNDISSTWAAYLPQCVKRRMALTGAATGNSSSHGPRKNSLDSEISVSVRHVSVESRRNSVDSQVSVKIAEMKTKVASRSRGKHGGSSSNRRTQRRRDYIAAATGKSSRRRESSTSVESQVIALKKTTYPNASHKVGVFAHHSSKKQHNYTSSMKRRTANAGLDPSILNEFLQKNGDFIFPFLQNQDMSSSSEEDNSRASQKIQDLNVVVKQQEISEDDHDGIKIEELPNSKQVALENFLKNIKKSNESNSNRHSRNSARSQSKKSQKRHLKNPAADLDFRKDCVKYRSNDSLSCSSEELDVALDVGSLLNSSFSGISMGKPHSRNSKTSCDVGIQANPFELVPSYGEDELQQAMRLLNAASRQRTEAANEDFGGTELQGLLGHSHRHQREPTFMSESDKLKMLLLPSK | decreases
6 | Drosophila Smo (dSmo): N184Q,N336Q (protein) parent chain: MQYLNFPRMPNIMMFLEVAILCLWVVADASASSAKFGSTTPASAQQSDVELEPINGTLNYRLYAKKGRDDKPWFDGLDSRHIQCVRRARCYPTSNATNTCFGSKLPYELSSLDLTDFHTEKELNDKLNDYYALKHVPKCWAAIQPFLCAVFKPKCEKINGEDMVYLPSYEMCRITMEPCRILYNTTFFPKFLRCNETLFPTKCTNGARGMKFNGTGQCLSPLVPTDTSASYYPGIEGCGVRCKDPLYTDDEHRQIHKLIGWAGSICLLSNLFVVSTFFIDWKNANKYPAVIVFYINLCFLIACVGWLLQFTSGSREDIVCRKDGTLRHSEPTAGENLSCIVIFVLVYYFLTAGMVWFVFLTYAWHWRAMGHVQDRIDKKGSYFHLVAWSLPLVLTITTMAFSEVDGNSIVGICFVGYINHSMRAGLLLGPLCGVILIGGYFITRGMVMLFGLKHFANDIKSTSASNKIHLIIMRMGVCALLTLVFILVAIACHVTEFRHADEWAQSFRQFIICKISSVFEEKSSCRIENRPSVGVLQLHLLCLFSSGIVMSTWCWTPSSIETWKRYIRKKCGKEVVEEVKMPKHKVIAQTWAKRKDFEDKGRLSITLYNTHTDPVGLNFDVNDLNSSETNDISSTWAAYLPQCVKRRMALTGAATGNSSSHGPRKNSLDSEISVSVRHVSVESRRNSVDSQVSVKIAEMKTKVASRSRGKHGGSSSNRRTQRRRDYIAAATGKSSRRRESSTSVESQVIALKKTTYPNASHKVGVFAHHSSKKQHNYTSSMKRRTANAGLDPSILNEFLQKNGDFIFPFLQNQDMSSSSEEDNSRASQKIQDLNVVVKQQEISEDDHDGIKIEELPNSKQVALENFLKNIKKSNESNSNRHSRNSARSQSKKSQKRHLKNPAADLDFRKDCVKYRSNDSLSCSSEELDVALDVGSLLNSSFSGISMGKPHSRNSKTSCDVGIQANPFELVPSYGEDELQQAMRLLNAASRQRTEAANEDFGGTELQGLLGHSHRHQREPTFMSESDKLKMLLLPSK | decreases

Source: article PMC4546403
